Laboratory results published in the supplement of paper PMC10065799, “High-throughput profiling of sequence recognition by tyrosine kinases and SH2 domains using bacterial peptide display” (eLife, 2023).

What was measured:
Hck = Hck (UniProt P08631); assay: phosphorylation enrichment, bacterial display (enrichment ratio); higher = better substrate or ligand; peptides without Tyr show the background
Fyn = Fyn (UniProt P06241); assay: as above
c-Abl (mouse) = assay: as above
Fer (mouse) = assay: as above
FGFR1 = FGFR1 (UniProt P11362); assay: as above
Jak2 = Jak2 (UniProt O60674); assay: as above
c-Src = assay: as above
FGFR3 = FGFR3 (UniProt P22607); assay: as above
Fes = Fes (UniProt P07332); assay: as above
AncSZ = assay: as above
EPHB1 = EPHB1 (UniProt P54762); assay: as above
MERTK = MERTK (UniProt Q12866); assay: as above
EPHB2 = EPHB2 (UniProt P29323); assay: as above
SHP2-C SH2 = assay: SH2 binding enrichment of the phosphorylated peptide, bacterial display (enrichment ratio); higher = better substrate or ligand; peptides without Tyr show the background
c-Src SH2 = assay: as above
Grb2 SH2 = Grb2 SH2 (UniProt P62993); assay: as above
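Throughout, for SH2 binding enrichment of the phosphorylated peptide, bacterial display: peptide library displayed on the E. coli surface as eCPX fusions, selected cells deep-sequenced, score is each peptide's frequency after selection divided by its frequency in the input.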
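Throughout, for phosphorylation enrichment, bacterial display: 11-residue human phosphosite peptides and single-mutation variants displayed on the E. coli surface, counted by deep sequencing, each peptide's frequency after selection divided by its frequency in the unselected input library; frequency after pTyr selection over input frequency; kinase dosed for 20-30% of maximal phosphorylation in three min.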

Fes, sequence (P07332 whole entry, looked up): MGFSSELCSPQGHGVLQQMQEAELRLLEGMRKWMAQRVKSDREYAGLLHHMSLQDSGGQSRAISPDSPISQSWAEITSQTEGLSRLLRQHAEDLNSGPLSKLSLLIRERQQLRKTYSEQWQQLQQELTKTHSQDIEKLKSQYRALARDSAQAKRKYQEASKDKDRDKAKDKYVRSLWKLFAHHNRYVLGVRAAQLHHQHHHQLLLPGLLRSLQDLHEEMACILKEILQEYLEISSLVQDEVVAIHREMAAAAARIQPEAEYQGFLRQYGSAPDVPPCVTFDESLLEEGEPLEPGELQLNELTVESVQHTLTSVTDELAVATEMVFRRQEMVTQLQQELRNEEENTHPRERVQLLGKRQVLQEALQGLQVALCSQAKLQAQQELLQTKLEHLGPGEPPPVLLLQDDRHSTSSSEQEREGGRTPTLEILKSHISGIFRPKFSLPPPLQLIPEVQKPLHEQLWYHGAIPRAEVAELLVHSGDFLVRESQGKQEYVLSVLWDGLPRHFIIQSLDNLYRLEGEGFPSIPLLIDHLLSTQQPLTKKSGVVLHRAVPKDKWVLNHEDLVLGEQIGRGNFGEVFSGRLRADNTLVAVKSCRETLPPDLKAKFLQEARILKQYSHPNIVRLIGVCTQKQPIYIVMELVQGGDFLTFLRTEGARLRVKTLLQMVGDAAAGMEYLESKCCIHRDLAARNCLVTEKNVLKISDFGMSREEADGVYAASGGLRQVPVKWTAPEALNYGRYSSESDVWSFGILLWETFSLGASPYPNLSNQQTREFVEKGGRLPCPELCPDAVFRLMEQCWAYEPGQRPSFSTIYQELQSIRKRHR
Fyn, sequence (P06241 whole entry, looked up): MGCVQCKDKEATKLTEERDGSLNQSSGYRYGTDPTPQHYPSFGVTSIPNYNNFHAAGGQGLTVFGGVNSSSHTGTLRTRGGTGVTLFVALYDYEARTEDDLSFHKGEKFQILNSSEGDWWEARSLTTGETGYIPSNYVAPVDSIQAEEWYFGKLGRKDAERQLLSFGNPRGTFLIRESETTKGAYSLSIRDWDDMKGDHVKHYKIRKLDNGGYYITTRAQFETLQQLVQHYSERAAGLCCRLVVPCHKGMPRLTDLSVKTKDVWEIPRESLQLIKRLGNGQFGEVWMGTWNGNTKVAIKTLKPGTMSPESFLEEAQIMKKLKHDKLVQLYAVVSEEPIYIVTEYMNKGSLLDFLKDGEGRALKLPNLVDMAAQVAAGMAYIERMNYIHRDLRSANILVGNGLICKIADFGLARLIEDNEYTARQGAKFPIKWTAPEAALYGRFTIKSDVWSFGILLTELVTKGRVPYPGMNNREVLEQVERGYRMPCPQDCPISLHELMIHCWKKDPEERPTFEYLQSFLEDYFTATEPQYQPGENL
FGFR1, sequence (P11362 whole entry, looked up): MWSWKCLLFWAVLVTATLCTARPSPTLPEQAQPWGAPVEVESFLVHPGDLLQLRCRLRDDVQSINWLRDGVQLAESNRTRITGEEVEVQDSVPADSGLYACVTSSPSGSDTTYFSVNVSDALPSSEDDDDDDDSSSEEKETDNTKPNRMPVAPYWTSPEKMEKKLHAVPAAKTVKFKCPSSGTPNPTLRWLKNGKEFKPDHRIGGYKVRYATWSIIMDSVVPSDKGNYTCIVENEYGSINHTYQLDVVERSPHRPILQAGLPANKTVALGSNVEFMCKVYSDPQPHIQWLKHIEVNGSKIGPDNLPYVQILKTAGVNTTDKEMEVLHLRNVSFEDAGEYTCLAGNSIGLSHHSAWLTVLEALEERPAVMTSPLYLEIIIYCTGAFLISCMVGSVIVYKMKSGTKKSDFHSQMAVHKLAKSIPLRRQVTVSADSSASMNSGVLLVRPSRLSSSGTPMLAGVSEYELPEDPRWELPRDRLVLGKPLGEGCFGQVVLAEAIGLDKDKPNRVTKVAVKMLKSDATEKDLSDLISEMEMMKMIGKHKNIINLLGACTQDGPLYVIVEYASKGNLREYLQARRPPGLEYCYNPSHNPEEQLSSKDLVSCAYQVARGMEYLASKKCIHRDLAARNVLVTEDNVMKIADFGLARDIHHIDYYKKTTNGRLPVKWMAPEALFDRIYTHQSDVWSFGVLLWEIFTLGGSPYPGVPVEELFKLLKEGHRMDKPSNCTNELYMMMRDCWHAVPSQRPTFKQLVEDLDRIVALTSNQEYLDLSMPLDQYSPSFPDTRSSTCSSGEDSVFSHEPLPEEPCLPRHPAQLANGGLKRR
FGFR3, sequence (P22607 whole entry, looked up): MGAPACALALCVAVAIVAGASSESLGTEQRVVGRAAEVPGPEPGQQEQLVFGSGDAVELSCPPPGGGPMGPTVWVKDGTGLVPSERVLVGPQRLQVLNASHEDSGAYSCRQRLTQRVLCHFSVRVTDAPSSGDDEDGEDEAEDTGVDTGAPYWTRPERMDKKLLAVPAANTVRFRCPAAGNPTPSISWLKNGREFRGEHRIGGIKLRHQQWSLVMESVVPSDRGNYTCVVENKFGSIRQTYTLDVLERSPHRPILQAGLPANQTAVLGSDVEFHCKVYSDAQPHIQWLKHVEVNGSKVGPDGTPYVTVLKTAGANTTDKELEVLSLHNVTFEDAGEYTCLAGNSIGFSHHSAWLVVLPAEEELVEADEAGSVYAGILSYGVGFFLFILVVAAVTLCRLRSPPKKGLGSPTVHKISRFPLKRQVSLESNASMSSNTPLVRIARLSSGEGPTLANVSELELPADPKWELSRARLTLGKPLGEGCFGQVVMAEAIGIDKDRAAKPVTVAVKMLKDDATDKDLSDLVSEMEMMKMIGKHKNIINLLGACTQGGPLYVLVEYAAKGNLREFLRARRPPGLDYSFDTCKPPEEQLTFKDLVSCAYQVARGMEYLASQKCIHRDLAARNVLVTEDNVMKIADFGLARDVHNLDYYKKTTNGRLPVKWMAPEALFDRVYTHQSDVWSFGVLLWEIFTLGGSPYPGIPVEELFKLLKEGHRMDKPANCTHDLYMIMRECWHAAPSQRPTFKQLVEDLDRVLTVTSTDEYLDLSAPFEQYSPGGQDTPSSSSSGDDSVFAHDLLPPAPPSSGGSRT
Jak2, sequence (O60674 whole entry, looked up): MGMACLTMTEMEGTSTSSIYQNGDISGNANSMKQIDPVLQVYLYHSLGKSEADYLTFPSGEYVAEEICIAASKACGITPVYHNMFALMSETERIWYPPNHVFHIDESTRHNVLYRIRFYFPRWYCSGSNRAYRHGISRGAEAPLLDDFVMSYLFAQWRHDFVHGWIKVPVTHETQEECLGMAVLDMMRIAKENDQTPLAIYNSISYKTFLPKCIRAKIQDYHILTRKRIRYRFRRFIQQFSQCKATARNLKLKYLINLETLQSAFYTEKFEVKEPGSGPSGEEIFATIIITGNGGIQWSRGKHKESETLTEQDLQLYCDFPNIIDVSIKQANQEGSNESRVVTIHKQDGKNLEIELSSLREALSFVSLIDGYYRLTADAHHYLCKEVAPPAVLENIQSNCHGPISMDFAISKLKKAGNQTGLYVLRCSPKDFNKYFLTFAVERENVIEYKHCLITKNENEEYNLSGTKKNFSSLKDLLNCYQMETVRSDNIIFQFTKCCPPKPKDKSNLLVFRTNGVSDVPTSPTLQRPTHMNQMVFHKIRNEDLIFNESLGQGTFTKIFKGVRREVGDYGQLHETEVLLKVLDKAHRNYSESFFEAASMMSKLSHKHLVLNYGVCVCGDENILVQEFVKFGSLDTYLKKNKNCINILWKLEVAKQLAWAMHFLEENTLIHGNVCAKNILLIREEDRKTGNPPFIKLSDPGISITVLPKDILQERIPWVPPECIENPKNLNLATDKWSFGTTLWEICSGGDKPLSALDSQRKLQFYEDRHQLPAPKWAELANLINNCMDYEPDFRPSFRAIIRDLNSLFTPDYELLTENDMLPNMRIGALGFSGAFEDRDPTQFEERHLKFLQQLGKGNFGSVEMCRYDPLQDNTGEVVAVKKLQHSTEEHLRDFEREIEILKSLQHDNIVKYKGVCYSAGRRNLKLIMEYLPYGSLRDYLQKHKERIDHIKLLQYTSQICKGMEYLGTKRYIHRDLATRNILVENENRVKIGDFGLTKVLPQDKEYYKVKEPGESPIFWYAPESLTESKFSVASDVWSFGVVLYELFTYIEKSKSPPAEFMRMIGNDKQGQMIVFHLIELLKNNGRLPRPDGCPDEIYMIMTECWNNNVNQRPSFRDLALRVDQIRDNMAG
Hck, sequence (P08631 whole entry, looked up): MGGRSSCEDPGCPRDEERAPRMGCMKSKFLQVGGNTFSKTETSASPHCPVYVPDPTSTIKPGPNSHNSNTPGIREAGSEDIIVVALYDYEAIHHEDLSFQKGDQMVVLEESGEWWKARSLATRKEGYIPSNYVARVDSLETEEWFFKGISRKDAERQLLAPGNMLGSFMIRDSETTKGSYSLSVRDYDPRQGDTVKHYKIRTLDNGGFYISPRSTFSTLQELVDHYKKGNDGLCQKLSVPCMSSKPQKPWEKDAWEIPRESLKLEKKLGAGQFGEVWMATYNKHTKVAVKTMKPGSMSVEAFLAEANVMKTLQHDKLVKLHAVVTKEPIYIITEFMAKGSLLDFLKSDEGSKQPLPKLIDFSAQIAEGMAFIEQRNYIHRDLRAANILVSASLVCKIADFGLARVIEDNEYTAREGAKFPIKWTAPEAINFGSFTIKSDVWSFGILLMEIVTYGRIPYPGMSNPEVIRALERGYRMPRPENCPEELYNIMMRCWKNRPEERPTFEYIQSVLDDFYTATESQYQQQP
Grb2 SH2, sequence (P62993 whole entry, looked up, the tested form may be a part): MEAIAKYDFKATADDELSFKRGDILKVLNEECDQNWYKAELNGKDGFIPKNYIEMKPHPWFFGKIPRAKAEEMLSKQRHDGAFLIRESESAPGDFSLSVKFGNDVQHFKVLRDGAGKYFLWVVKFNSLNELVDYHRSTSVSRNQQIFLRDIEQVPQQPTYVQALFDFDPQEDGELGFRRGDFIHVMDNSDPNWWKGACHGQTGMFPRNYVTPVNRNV

| Sequence | phosphorylation enrichment (Hck) | phosphorylation enrichment (Fyn) | phosphorylation enrichment (c-Abl (mouse)) | phosphorylation enrichment (Fer (mouse)) | phosphorylation enrichment (FGFR1) | phosphorylation enrichment (Jak2) | phosphorylation enrichment (c-Src) | phosphorylation enrichment (FGFR3) | phosphorylation enrichment (Fes) | phosphorylation enrichment (AncSZ) | phosphorylation enrichment (EPHB1) | phosphorylation enrichment (MERTK) | phosphorylation enrichment (EPHB2) | SH2 binding enrichment (SHP2-C SH2) | SH2 binding enrichment (c-Src SH2) | SH2 binding enrichment (Grb2 SH2) |
| --- | --- | --- | --- | --- | --- | --- | --- | --- | --- | --- | --- | --- | --- | --- | --- | --- |
| SGFESYGSSSS [RPA2_Y9_Y14S] | 0.484 | 0.453 | 0.633 | 0.521 | 0.461 | 0.555 | 0.541 | 0.599 | 0.658 | 0.651 | 0.47 | 0.502 | 0.617 | 0.737 | 0.425 | 0.735 |
| SGPRRYTIATL [TTR_Y125_A129T] | 0.372 | 0.377 | 0.39 | 0.361 | 0.432 | 1.03 | 0.375 | 0.398 | 0.44 | 0.472 | 1.36 | 0.425 | 0.344 | 0.723 | 0.539 | 0.803 |
| SGTFQYIIAKF [FOXL2_Y83_I80T_YF] | 0.418 | 0.532 | 0.878 | 0.473 | 0.494 | 0.953 | 0.366 | 0.793 | 1.27 | 1.09 | 0.448 | 0.393 | 0.491 | 0.572 | 0.58 | 0.699 |
| SHKELYKWFTS [DYNC1H1_Y3051_E3048K] | 0.566 | 0.513 | 0.566 | 0.574 | 0.897 | 0.717 | 0.576 | 0.501 | 0.812 | 0.634 | 0.544 | 0.66 | 0.439 | 1.05 | 0.777 | 1.02 |
| SHLSAFPALEG [CD5_Y465_Y465F] | 0.402 | 0.352 | 0.407 | 0.312 | 0.354 | 0.5 | 0.328 | 0.52 | 0.612 | 0.553 | 0.431 | 0.347 | 0.367 | 0.751 | 0.529 | 0.734 |
| SHSMRYFFTAV [HLA-C_Y31_D33F] | 0.525 | 0.53 | 0.923 | 0.619 | 0.62 | 1.13 | 0.568 | 0.874 | 1.3 | 1.13 | 0.595 | 0.525 | 0.626 | 1.33 | 1.25 | 1.39 |
| SIKDKHVTALF [KCNH2_Y611_Y611H_YF] | 0.463 | 0.417 | 0.486 | 0.399 | 0.418 | 0.441 | 0.52 | 0.435 | 0.633 | 0.576 | 0.354 | 0.469 | 0.42 | 0.456 | 0.443 | 0.659 |
| SISLKYEGRVY [ABL1_Y167_R166K] | 0.507 | 0.47 | 0.983 | 0.499 | 0.51 | 1.24 | 0.511 | 0.897 | 1.38 | 1.13 | 0.663 | 0.451 | 0.747 | 0.66 | 0.388 | 0.814 |
| SKAFAYVHFDS [PABPC5_Y149_G146A_YF] | 0.51 | 0.382 | 0.669 | 0.537 | 0.449 | 1.09 | 0.424 | 0.828 | 1.36 | 0.935 | 0.447 | 0.443 | 0.483 | 0.913 | 1.44 | 0.942 |
| SKEPFYVHCIK [MYO1D_Y586_R588H_YF] | 0.528 | 0.44 | 0.631 | 0.467 | 0.484 | 0.864 | 0.418 | 0.682 | 1.07 | 1.08 | 0.614 | 0.433 | 0.577 | 0.898 | 0.574 | 0.981 |
| SKKSTYRALLD [GANC_Y43_Q44R] | 0.406 | 0.432 | 0.447 | 0.358 | 0.347 | 0.533 | 0.385 | 0.348 | 0.655 | 0.471 | 0.368 | 0.421 | 0.315 | 0.688 | 0.465 | 0.651 |
| SLDHPYEKPRK [INAVA_Y333] | 0.39 | 0.371 | 0.423 | 0.388 | 0.339 | 0.436 | 0.352 | 0.421 | 0.63 | 0.741 | 0.349 | 0.329 | 0.467 | 0.683 | 1.77 | 0.852 |
| SLEKSYELLDG [ACTB_Y240_P243L] | 0.595 | 0.533 | 0.956 | 0.705 | 0.508 | 1.25 | 0.52 | 0.963 | 1.16 | 1.16 | 0.575 | 0.555 | 0.584 | 0.729 | 4.69 | 1.01 |
| SLESAYPEVSQ [TTF1_Y357_G360V] | 0.858 | 0.447 | 1.55 | 0.4 | 0.507 | 1.09 | 0.523 | 0.611 | 0.941 | 0.951 | 0.514 | 0.471 | 0.792 | 0.607 | 0.482 | 0.764 |
| SLIDGYYRLTA [JAK2_Y372] | 0.475 | 0.467 | 0.522 | 0.427 | 2.49 | 7.08 | 0.451 | 1.69 | 0.926 | 0.92 | 0.457 | 0.436 | 0.495 | 6.44 | 2.57 | 0.986 |
| SLIEHYEPSET [PLCD1_Y258_R257H] | 0.535 | 0.513 | 0.624 | 0.525 | 0.586 | 0.983 | 0.446 | 0.704 | 0.977 | 1.05 | 0.541 | 0.422 | 0.548 | 0.806 | 0.929 | 0.927 |
| SLLLSYFLIKW [NUP160_Y773_P768S_YF] | 0.654 | 0.589 | 1.05 | 0.719 | 0.732 | 1.51 | 0.512 | 1.08 | 1.46 | 1.56 | 0.691 | 0.514 | 0.788 | 0.978 | 1.15 | 1.3 |

| Sequence | phosphorylation enrichment (Hck) | phosphorylation enrichment (Fyn) | phosphorylation enrichment (c-Abl (mouse)) | phosphorylation enrichment (Fer (mouse)) | phosphorylation enrichment (FGFR1) | phosphorylation enrichment (Jak2) | phosphorylation enrichment (c-Src) | phosphorylation enrichment (FGFR3) | phosphorylation enrichment (Fes) | phosphorylation enrichment (AncSZ) | phosphorylation enrichment (EPHB1) | phosphorylation enrichment (MERTK) | phosphorylation enrichment (EPHB2) | SH2 binding enrichment (SHP2-C SH2) | SH2 binding enrichment (c-Src SH2) | SH2 binding enrichment (Grb2 SH2) |
| --- | --- | --- | --- | --- | --- | --- | --- | --- | --- | --- | --- | --- | --- | --- | --- | --- |
| SMEMKYLEEKN [ZAP70_Y451_G448E] | 0.548 | 0.706 | 1.17 | 0.572 | 0.535 | 1.22 | 0.609 | 1.07 | 1.47 | 1.15 | 0.825 | 0.48 | 0.659 | 0.786 | 0.549 | 0.906 |
| SMGHRYIEVFK [HNRNPF_Y82] | 0.407 | 0.354 | 0.757 | 0.438 | 0.408 | 1.05 | 0.445 | 0.483 | 1 | 0.744 | 0.398 | 0.361 | 0.38 | 0.988 | 2.08 | 1.03 |
| SNKLHYQLEQE [PDPR_Y110_Y109H] | 0.535 | 0.519 | 0.647 | 0.498 | 0.496 | 0.699 | 0.443 | 0.673 | 1 | 0.917 | 0.504 | 0.442 | 0.505 | 0.783 | 0.72 | 1.01 |
| SPDMLYQFLKQ [RPAP3_Y567_YF] | 7.82 | 0.792 | 0.695 | 7.72 | 1.7 | 0.679 | 1.77 | 1.35 | 0.971 | 0.997 | 0.943 | 4.98 | 0.749 | 0.683 | 0.499 | 0.782 |
| SPPEVYAIMRG [NTRK1_Y757_C752S] | 2.91 | 1.63 | 0.609 | 0.525 | 0.506 | 0.718 | 2.64 | 0.524 | 0.808 | 0.99 | 1.12 | 1.82 | 0.641 | 1.16 | 0.611 | 0.711 |
| SQQTYYPVSNM [ABCD1_Y181_R182P] | 6.81 | 3.77 | 2.44 | 0.946 | 13.5 | 9.57 | 5.27 | 10.5 | 0.68 | 1.32 | 5.58 | 10.5 | 4.24 | 0.534 | 0.532 | 0.864 |
| SRDTRYLVLAV [AMH_Y195] | 0.476 | 0.492 | 0.739 | 0.552 | 0.543 | 0.909 | 0.514 | 0.683 | 1.1 | 0.93 | 0.636 | 0.487 | 0.559 | 2.34 | 0.811 | 1.13 |
| SRLDSYVRSLP [TRAPPC1_Y133] | 0.443 | 0.373 | 0.473 | 0.338 | 0.427 | 0.556 | 0.448 | 0.525 | 0.666 | 0.579 | 0.606 | 0.447 | 0.395 | 0.531 | 0.546 | 0.725 |
| SSAAGYACLAF [MVD_Y131_YF] | 0.585 | 0.428 | 0.946 | 0.493 | 0.446 | 0.919 | 0.494 | 0.763 | 1.07 | 0.948 | 0.536 | 0.538 | 0.455 | 10 | 1.55 | 0.732 |
| SSEFHCVGGFF [CTSC_Y347_Y347C_YF] | 0.499 | 0.44 | 0.735 | 0.521 | 0.466 | 0.858 | 0.458 | 0.619 | 1.05 | 0.997 | 0.564 | 0.412 | 0.5 | 0.64 | 0.373 | 0.883 |
| SSENPCATIKD [MEGF10_Y1030_Y1030C] | 0.492 | 0.468 | 0.509 | 0.445 | 0.554 | 0.66 | 0.465 | 0.602 | 0.823 | 0.812 | 0.43 | 0.438 | 0.494 | 0.806 | 0.541 | 0.795 |
| SSFDTYHLSRE [KIR3DL2_Y253_I252T_YF] | 3.51 | 4.75 | 0.613 | 0.539 | 0.615 | 0.7 | 3.31 | 0.595 | 0.842 | 0.756 | 0.528 | 0.613 | 0.616 | 0.824 | 0.701 | 0.764 |
| SSQILYKLEQS [THADA_Y701_V699I] | 0.49 | 0.388 | 0.551 | 0.423 | 0.4 | 0.7 | 0.669 | 0.582 | 0.781 | 0.727 | 0.56 | 0.466 | 0.451 | 0.533 | 0.537 | 1 |
| SSRKEYFIGGG [GYPC_Y126] | 0.486 | 0.603 | 0.429 | 0.431 | 0.532 | 0.519 | 0.496 | 0.478 | 0.673 | 0.482 | 0.423 | 0.309 | 0.317 | 0.677 | 0.63 | 0.703 |
| SSVPDYLAAVD [GLB1_Y154_D151V] | 0.517 | 0.582 | 0.801 | 0.568 | 0.534 | 1.11 | 0.381 | 1.17 | 1.19 | 1.63 | 0.631 | 0.463 | 0.683 | 0.816 | 0.523 | 0.774 |
| SVAVPYEPPEV [TP53_Y220_V217A] | 0.565 | 0.486 | 0.823 | 0.529 | 0.595 | 1.1 | 0.551 | 0.944 | 1.31 | 1.31 | 0.614 | 0.493 | 0.626 | 0.719 | 0.728 | 1.05 |
